The source of these data is patent US20240409645A1 (DUALYX, published 2024).

Where a chain is given by its changes, count along the chain named.

The target of test [1] is T1, cynomolgus monkey IL-2Rα/CD25 subunit (cynomolgus monkey, UniProt H6WS54 22-213).
T1 construct: also called Cyno IL-2R subunit
T1 sequence: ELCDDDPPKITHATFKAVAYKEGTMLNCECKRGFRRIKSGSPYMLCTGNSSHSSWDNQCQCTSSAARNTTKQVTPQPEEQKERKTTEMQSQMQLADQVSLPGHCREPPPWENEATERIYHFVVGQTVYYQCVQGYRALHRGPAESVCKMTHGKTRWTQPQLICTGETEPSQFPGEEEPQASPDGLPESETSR
The test is described as follows: ELISA, bivalent VHH-hFc. On the procedure:
(§1) Monospecific monovalent and bivalent IL-2Rα-, IL-2Rβ- and IL-2Rγ-specific antibodies that were selected on human IL-2R subunits, were evaluated for their cross-reactivity in an ELISA. Human and cynomolgus monkey receptor subunits (Acrobiosystems, KactusBiosystems) were coated at 1 μg/mL in PBS (pH 7.4) in a Maxisorp plate (Nunc) and incubated overnight at 4° C. The plates were further washed with PBS-Tween pH 7.4 and incubated with 1% cascin/PBS-Tween blocking solution for 1 hour shaking at 400 rpm. Subsequently, the plate was washed three times with PBS-Tween pH 7.4, after which the test antibodies diluted in 0.1% casein/PBS-Tween were added to the plate and incubated for 1 hour. The plate was again washed three times, after which goat anti-human IgG Fc (HRP) detection antibody (abcam) was added to the plate and incubated for 30 min. The colouring reaction was performed with TMB (Sigma-Aldrich) and stopped with 0.5N H₂SO₄.
(§2) Absorbance was measured at 450 nm with the reference wavelength of 620 nm using spectrophotometer. Final analysis and graphic output were performed with GraphPad Prism version 8 (GraphPad Software). The dose-response binding curves were fit to a nonlinear regression model (log (agonist) vs. response with a variable slope (four parameters)).
(An ELISA detects its analyte on a solid surface through an enzyme-linked reagent.)

In test [2] the target is T2, human interleukin-2 receptor α-chain (IL-2Rα; CD25), recombinant protein (human, UniProt P01589 22-240, limits assumed).
T2 construct: also called huIL2R-a; hIL-2RA
T2 sequence: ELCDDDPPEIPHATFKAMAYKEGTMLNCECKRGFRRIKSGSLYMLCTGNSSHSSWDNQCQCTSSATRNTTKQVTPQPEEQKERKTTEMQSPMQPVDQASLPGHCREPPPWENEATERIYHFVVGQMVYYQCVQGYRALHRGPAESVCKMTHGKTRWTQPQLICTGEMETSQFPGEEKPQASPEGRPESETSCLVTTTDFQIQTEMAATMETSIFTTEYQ
Description: ELISA, bivalent VHH-hFc. As to the method: as §1, §2

Test [3] addresses T1, cynomolgus monkey IL-2Rα/CD25 subunit. The test is described as follows: ELISA, bivalent; EC50 cyno vs human subunit. On the procedure: as §1, §2
Test [4] addresses T2, human interleukin-2 receptor α-chain …. Description: P.E. binding ELISA. A digest of the protocol:
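Direct-coat ELISA: receptor protein o/n 4° C → 4% Marvel/PBS block 1 h → P.E. 1:5 in 1% Marvel/PBS, 1 h → OD450 vs neg. controls.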

Test [5] has the same target. Description: P.E. off-rate SPR. A digest of the protocol: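 First, the IL-2R protein is immobilised via amine coupling in acetate buffer to roughly 2500 RU on a CM5 sensor chip. Next, the VHH extract is loaded at 30 uL/min. Finally, dissociation is recorded for 120s.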
The target of test [6] is T3, human IL-2Rγ (common cytokine receptor γ-chain) (human, UniProt P31785 23-262, limits assumed).
T3 construct: Recombinant human IL-2Rγ protein coated on the ELISA plate or immobilised on the CM5 chip; also called hu IL-2R; CD132
T3 sequence: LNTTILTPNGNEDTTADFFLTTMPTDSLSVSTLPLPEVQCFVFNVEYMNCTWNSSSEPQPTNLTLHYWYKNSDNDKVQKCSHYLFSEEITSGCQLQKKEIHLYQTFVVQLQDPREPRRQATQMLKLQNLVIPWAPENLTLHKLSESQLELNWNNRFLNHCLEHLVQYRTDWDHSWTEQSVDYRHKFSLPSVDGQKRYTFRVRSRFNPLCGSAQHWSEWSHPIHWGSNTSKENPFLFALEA
Description: binding ELISA, periplasmic extract on coated human IL-2Rγ. On the procedure: In a binding ELISA, human or mouse IL-2Rα, IL-2Rβ and IL-2Rγ proteins were coated directly on maxisorp microtiter plates overnight at 4° C. Free binding sites were blocked using 4% Marvel in PBS for 1 hour. Next, 1:5 dilution of P.E. in 1% Marvel/PBS were added to wells and incubated for 1 hour. […] Binding specificity was determined based on O.D. at 450 nm values compared to negative controls.

The target of test [7] is T3, human IL-2Rγ (common cytokine receptor …). The test is described as follows: SPR off-rate ranking, periplasmic extract over immobilised human IL-2Rγ. As to the method:
SPR was performed to determine dissociation rates using Biacore 3000 instrument (GE Healthcare). Briefly, human and mouse IL-2R proteins were immobilized on carboxylmethyl dextran sensor chip (CM5) at approximately 2500 RUs using amine coupling in acetate buffer (GE Healthcare). The VHH-containing P.E. were loaded with a flow rate of 30 uL/min and the off-rates were measured over a 120s period.

B1: 7-MP01G08 VHH-hFc, monospecific bivalent (Fc fusion)
chain: EVQLVESGGGLVQAGGSLRLSCAASGRAFSMYNMGWFRQAPGKEREFVAATGWSGANTPYADSVKGRFTISRDNTQNTVYLQMNSLKPEDTATYYCAADSIRLRSDVTRIPLEYDYWGQGTQVTVSS
notes: IgG1 Fc LALA-PG; also called 07-MP01G08; not shown: human IgG1 CH2 and CH3 domains (Fc)
With B1, the results for the EC50 in test [1] and in test [2] were 0.067 nM and 0.072 nM, respectively. The molecule further registered a Fold change in test [3] of 0.9 fold.

B2: 2-MP01A02 VHH (periplasmic extract) (VHH)
VHH: QVQLVESGGGLVQPGGSLRLSCATSGFTFRNNFMSWVRQAPGKGLEWVSTISYGGESTTYAESVKGRFTISRDNAKNTLYLQMNNLKPEDTAVYYCAKATSYDSIRSGSRGQGTQVTVSS
notes: soluble VHH in periplasmic extract
For the molecule B2, the OD450 nm in test [4] amounted to 2.62 OD450 nm. For the same molecule, in test [5], the koff (in general, the first-order rate constant of dissociation) was found to be 0.00153 s⁻¹.

B3: 8-MP01C12 VHH (periplasmic extract) (VHH)
VHH: B2 VHH with R30S, W47F, S63A, V93I, D103T, S107G, G108A, S109P
notes: as for B2
Regarding B3, the OD450 nm in test [4] came to 2.53 OD450 nm. Further, the koff in test [5] was 0.000383 s⁻¹.

B4: FJ1427_P035MP07A12 (VHH)
VHH: QVQLQESGGGLVQAGGSLRLSCAASGRTLSRYAMGWFRQAPGSEREFVAASSWGGDTFYADSVEGRFTFSRDNAKNAVYLQMNSLQPEDTAAYYCAAAPTSFPTTAYSSSNSYAYWGQGTQVTVSS
notes: Tested as soluble VHH fragment in periplasmic extract (P.E.); also called Clone nr
Regarding B4, the “P.E. binding ELISA OD450” value in test [6] is 0.485 OD450 nm. Moreover, the koff in test [7] is 0.0027 s⁻¹.

B5: FJ1427_P035MP07C11 (VHH)
VHH: B4 VHH with Q5V, G16A, S43K, F58Y, A92V, A97G, P103A
notes: as for B4
For the molecule B5, the “P.E. binding ELISA OD450” value in test [6] came out at 0.858 OD450 nm. This molecule yielded a koff in test [7] of 0.00485 s⁻¹.

B6: 12-MP05B12 VHH-hFc, monospecific bivalent (Fc fusion)
chain: QVQLVESGGGLVQAGGSLRLSCAASGFTFDGYAIGWFRQAPGKEREGVSYITGSDGSTYYADSVKGRFTISSNNAKNTVYLHMNSLKPDDAAVYYCAIDRLGSRGAYVPIWWRSSDMDLWGKGTLVTVSS
notes: IgG1 Fc LALA-PG; not shown: human IgG1 CH2 and CH3 domains (Fc)
Consider B6, for which the results for the EC50 in test [1] and in test [2] were 0.084 nM and 0.074 nM, respectively. In addition, in test [3], the Fold change is 1.1 fold.

B7: 5-MP01F05 VHH-hFc, monospecific bivalent (Fc fusion)
chain: EVQLVESGGGLVQAGGSLRLSCAASIRAFTTWSMAWFRQAPGKEREYVARINVSGSVTYYADFVKGRFTISRDNAKKTMYLEMNNLKPEDTALYYCAADRTGVGTNDYNYWGQGTQVTVSS
notes: as for B6
On to B7, for which the EC50 (usually the concentration giving half of the maximal effect) was determined as 0.095 nM in test [1] and 0.06 nM in test [2]. In test [3], the Fold change was 1.6 fold.

B8: 5-MP01F05 VHH (periplasmic extract) (VHH)
VHH: B7 chain
notes: as for B2
B8: the OD450 nm in test [4] was found to be 2.62 OD450 nm. The koff in test [5] was found to be 0.00042 s⁻¹.

B9: 11-MP05H04 VHH-hFc, monospecific bivalent (Fc fusion)
chain: QLQLVESGGGLVQAGGSLRLSCAASGLTFEGYAIGWFRQAPGKEREGVSYITGSDGTTYYINSVKGRFTISSDNAKSTVYLQMNTLKPEDTAVYYCAVDRLGSQGRYASAWWRSGDMDLWGKGTQVTVSS
notes: as for B6
With B9, the EC50 is 0.11 nM in test [1] and 0.093 nM in test [2]. The molecule also registered a Fold change in test [3] of 1.2 fold.

B10: 9-MP05G01 VHH-hFc, monospecific bivalent (Fc fusion)
chain: EVQLVESGGGLVQAGGSLRLSCAASGGSIYTYNMGWFRQAPGKEREFVAGTLWSGGDSVYADFAKGRFTLSRENAKNTLYLQMNSLKPEDTATYYCAIDPLSLTSDWRVDELSSWGKGTLVTVSS
notes: as for B6
Take B10: the EC50 amounted to 0.062 nM in test [1] and 0.065 nM in test [2]. This molecule also yielded a Fold change in test [3] of 1 fold.

B11: 1-MP01H01 VHH (periplasmic extract) (VHH)
VHH: EVQLVESGGGLVQAGGSLRLSCAASGRTFRTHNMGWFRRAPGKEREFVAAISWNVDNTLYADSVKGRFTISRDNGRNMVYLQMNSLKPEDTAVYYCAADNIPLSSDVAATATEYDYWGQGTQVTVSS
notes: as for B2
With B11, the OD450 nm in test [4] stood at 1.71 OD450 nm. The koff in test [5] was found to be 0.0229 s⁻¹.

B12: 6-MP01G05 VHH-hFc, monospecific bivalent (Fc fusion)
chain: QVQLQESGGGLVQAGGSLRLSCAASGRTFSSYAMGWFRQAPGKEREFVAVISWNVDNTEYTDSVKGRFTISRDNDKNMVYLQMNSLKPEDTAVYYCAADSIPLSSDMSPTATEYGYWGQGTQVTVSS
notes: as for B6
In the case of B12, the EC50 in test [1] came to 0.05 nM; in test [2], 0.056 nM. In test [3], this molecule came in with a Fold change of 0.9 fold.

B13: 6-MP01G05 VHH (periplasmic extract) (VHH)
VHH: B12 chain
notes: as for B2
In the case of B13, the OD450 nm in test [4] was determined as 1.79 OD450 nm. Besides, the koff in test [5] turned out to be 0.0206 s⁻¹.

B14: 3-MP01E03 VHH-hFc, monospecific bivalent (Fc fusion)
chain: QVQLVESGGGLVQAGGSLRLSCTASGRTLSSYSMAWFRQAADKGREFVTAISSSGVVTHVLDSVKGRFTISRDNAKNTVYLQMNSLQPEDTALYFCAGTASSYSTYEANYNYWGQGTLVTVSS
notes: as for B6
Turning to B14, the values for the EC50 in test [1] and in test [2] were 0.106 nM and 0.057 nM, respectively. This molecule displayed a Fold change in test [3] of 1.9 fold.

B15: 3-MP01E03 VHH (periplasmic extract) (VHH)
VHH: B14 chain
notes: as for B2
On to B15, for which the OD450 nm in test [4] worked out at 2.54 OD450 nm. For the same molecule, in test [5], the dissociation rate constant (koff) came to 0.000799 s⁻¹.

B16: 13-MP05E12 VHH-hFc, monospecific bivalent (Fc fusion)
chain: QVQLQESGGGLVQAGDSLRLSCAASGFNFGWHAMGWFRQAPGKEREFVATITWTGRDTYYADSVRGRFTISKDNAKDTLFLQMNSLRPDDTGVYYCAKARERATWAYSEDDCDYWGQGTQVTVSS
notes: as for B6
For B16, the figures for the EC50 in test [1] and in test [2] were 0.051 nM and 0.049 nM, respectively. In test [3], this molecule displayed a Fold change of 1 fold.

B17: 10-MP05F03 VHH-hFc, monospecific bivalent (Fc fusion)
chain: QVQLVESGGGLVQAGGSLRLSCAASGIPFDNYAMGWFRQAPGKEREFVAARDLEGIITRYGDSVKGRFTISRGNAKNTVFLQMNSLKPEDTAVYYCAARDGGVVAGSRSSAQYNYWGQGTQVTVSS
notes: IgG1 Fc LALA-PG; also called anti-IL-2Rα Ab 10; anti-IL-2Rα VHH 10; not shown: human IgG1 CH2 and CH3 domains (Fc)
For the molecule B17, the EC50 in test [1] turned out to be 0.06 nM; in test [2], 0.061 nM. For the same molecule, the Fold change in test [3] turned out to be 1 fold.

B18: 10-MP05F03 VHH (periplasmic extract) (VHH)
VHH: B17 chain
notes: as for B2
Turning to B18, the OD450 nm in test [4] amounted to 2.46 OD450 nm. In addition, the koff in test [5] is 0.000639 s⁻¹.
